Source: US8563503B2, “Antibiotic, its nucleotide sequence, methods of construction and uses thereof” (Protein Design Lab. Ltd., priority 2011, dated 2013)

Assays:
[1] = system: Staphylococcus epidermidis reference culture No. 26069; test: Bacteria growth curve (A595 nm cloudiness), Staphylococcus epidermidis; format: cell-based; conditions: drug 2 μg/ml, 37° C., A595 nm per hour
Procedure: The bacterium is Staphylococcus epidermidis reference culture No. 26069, purchased from China Center of Culture Collection (National Institute for the Control of Pharmaceutical and Biological Products). 3 microliter of bacterium solution (10^6 CFU/ml level bacterium amount) was added into 10 ml culture solution containing 1% peptone, 1% NaCl, 0.5% yeast extract, 0.5% glucose and 0.1% K2HPO4. Totally four groups were prepared. The first group as control was added 0.3M NaCl+50 mM boric acid buffer fluid by the same volume with that of antibiosis polypeptide liquid added in any experimental groups, the second group was added penicillin G sodium by 2 μg/ml, PMC-SA1 and PMC-SE was added in the other experimental groups by 2 μg/ml (0.3 M NaCl+50 mM boric acid buffer fluid was preservative fluid).
The solution of above groups was put into 100 ml conical flask, 200 rpm, grew at 37° C. 100 μl was sampled per hour, and added onto 96-pore ELISA plate to measure bacteria grown cloudiness by spectrophotometer (A595 nm) color comparison. The bacteria growth curve was drawn up to compare the bacteriostasis efficacy of the novel antibiotics.

[2] = system: Staphylococcus aureus MRSA BAA-42; test: Protection test in vivo (intravenous injection) of infected mice; design: species or system Kungming mice
Procedure, shortened: (§1)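 Mice got a lethal intraperitoneal bacterial challenge, then one intravenous dose of drug in sterile water at 10, 5 or 2.5 mg/kg. Survival was checked every 24 h for 7–14 days, with death counted as the positive result.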

[3] = system: Enterococcus ATCC 700802; test: as above; design: species or system Kungming mice; conditions: mice, infected with 7.0 × 10^6 cfu/ml i.p., drug once intravenous
Procedure, shortened: as §1

[4] = system: E. coli 02-1-65; test: as above; design: species or system Kungming mice; conditions: mice, infected with 3.8 × 10^5 cfu/ml i.p., drug once intravenous
Procedure, shortened: as §1

[5] = system: Staphylococcus aureus ATCC 29213; test: as above; design: species or system Kungming mice; conditions: mice, infected with 4.6 × 10^5 cfu/ml i.p., drug once intravenous
Procedure, shortened: as §1

[6] = system: Enterococcus ATCC 700802; test: MIC against the infecting strain (Table 2); format: cell-based, Enterococcus faecalis; conditions: ATCC700802
Procedure, shortened: (§2)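 For Enterococcus, medium was MH supplemented with 5-10% defibrinated rabbit blood and incubation used 5% CO2 at 37° C. All strains are spotted at 10^5 CFU/ml onto agar carrying twofold drug dilutions and read after 18-24 h for absence of growth.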

[7] = system: ATCC 25923 penicillin-sensitive Staphylococcus aureus; test: Bacteria growth curve (A595 nm cloudiness), penicillin-sensitive Staphylococcus aureus; format: cell-based; conditions: drug 100 ng/ml, 37° C., A595 nm per hour
Procedure: The bacterium was United States Reference Culture ATCC 25923 penicillin-sensitive Staphylococcus aureus. 2 microliter of bacteria solution (10^5 CFU/ml) was added into 10 ml culture solution containing 1% tryptone, 1% NaCl, 0.5% yeast extract, 0.5% glucose and 0.1% K2HPO4, totally prepared six groups. The first group as control was added 0.3 M NaCl+50 mM boric acid buffer fluid (i.e. blank preservative fluid for novel antibiotic, wild-type colicin Ia and protein produced by BL-21 engineering bacteria without plasmid, by the same volumes of antibiosis polypeptide liquid in the experimental group, the second group was added penicillin G sodium by 100 ng/ml, the third group was added wild-type colicin Ia by 100 ng/ml, the fourth group was added protein produced by BL-21 engineering bacteria without plasmid by 100 ng/ml, the fifth group was added recombinant protein that C-terminus of colicin Ia is fused other eight peptides by 100 ng/ml, and the sixth group was added the novel antibiotic PMC-SA1 by 100 ng/ml.
The solutions of the six groups were respectively put into 100 ml conical flask, 200 rpm, grew at 37° C. 100 μl was sampled per hour, and added onto 96 hole ELISA Plate and measured bacterium growth cloudiness by spectrophotometer (A595 nm) color comparison. The bacteria-growth curve was drawn up to compare the bacteriostasis efficacy of novel antibiosis.

[8] = system: Staphylococcus aureus MRSA BAA-42; test: MIC against the infecting strain (Table 2); format: cell-based; conditions: Staphylococcus aureus MRSA BAA-42
Procedure, shortened: as §2

[9] = system: E. coli 02-1-65; test: MIC against the infecting strain (Table 2); format: cell-based; conditions: E. coli 02-1-65
Procedure, shortened: as §2

[10] = system: Staphylococcus aureus ATCC 29213; test: MIC against the infecting strain (Table 2); format: cell-based; conditions: ATCC29213
Procedure, shortened: as §2

[11] = system: Enterococcus; test: MIC by Agar Doubling Dilution Method, clinical isolates; format: cell-based, Enterococcus faecalis; conditions: Enterococcus clinical strains
Procedure, shortened: as §2

[12] = Immunization of mice, valence of mouse sera by indirect ELISA; format: in vivo; conditions: from valence of mouse sera
Procedure: Allosteric peptide of Colicin Ia, i.e. Ia′, PMC-SA1 obtained in embodiment 1, wild-type colicin Ia and the anti-Staphylococcus aureus peptide (ZL01128836.1) which invented by the present inventor were taken respectively to immunize mice. After admixturing with the adjuvant, the above proteins were interaperitonea injected respectively to the mice by 50 μg per mouse for one time of foundational quantity and 50 μg per mouse for one time of additional quantity totally 5 times by two weeks interval. Indirect ELISA detection method was applied to detect the valence of mouse sera (Xiao Yi, et. al., Preparation and preliminary characterization of monoclonal antibodies against Pheromonicin-and-Staphylococcus aureus, Shanxi Medical Journal, 35(1): 6-7, 32 (2006)). The valence of mouse sera which immunized by wild type colicin Ia as well as anti-Staphylococcus aureus polypeptide (ZL01128836.1) was 10^−4 to 10^−5, while the valence of mouse sera which immunized by allosteric peptide of colicin Ia and PMC-SA1 was 10^−2 to 10^−3.

B1: PMC-SA1: Staphylococcus aureus pheromone AgrD I linked to C-terminus of allosteric colicin Ia′; SEQ ID NO. 13; plasmid pBHC-SA1 (protein)
chain: SDPVRITNPAAESLGYDSDGREIMGVDIYLNPPRVDVFKGTPPAWSSFGNKTIWGGNEWVDDSPTRSDIEKRDKEITAYKNTLSAQQKENENKRTEAGKRLSAAIAAREKDENTLKTLRAGNADAADITRQEFRLLQAELREYGFRTEIAGYDALRLHTESRMLFADADSLRISPREARSLIEQAEKRQKDAQNADKKAADMLAEYERRKGILDTRLSELEKNGGAALAVLDAQQARLLGQQTRNDRAISEARNKLSSVTESLNTARNALTRAEQQLTQQKNTPDGKTIVSPEKFPGRSSTNHSIVVSGDPRFAGTIKITTSAVIDNRANLNYLLSHSGLDYKRNILNDRNPVVTEDVEGDKKIYNAEVAEWDKLRQRLLDARNKITSAESAVNSARNNLSARTNEQKHANDALNALLKEKENIRNQLSGINQKIAEEKRKQDELKATKDAINFTTEFLKSVSEKYGAKAEQLAREMAGQAKGKKIRNVEEALKTYEKYRADINKKINAKDRAAIAAALESVKLSDISSNLNRFSRGLGYAGKFTSLADWITEFGKAVRTENWRPLFVKTETIIAGNAATALVALVFSILTGSALGIIGYGLLMAVTGALIDESLVEKANKFWGIYSTCDFIM
modifications: The peptide of PMC-SA1
notes: Staphylococcus aureus pheromone AgrD I linked to C-terminus of allosteric colicin Ia′; 13; plasmid pBHC-SA1
**Q.** What does the source list for B1?
**A.** growth of Staphylococcus epidermidis (bacteria growth curve) [1]: partly restrained; ED50 ([2]; mice, infected with 6.5 × 10^5 cfu/ml i.p., drug once intravenous): 4.12 mg/kg; treatment effects on methicillin-resistant Staphylococcus aureus infection in vivo compared with vancomycin ([2]; survival rate of mice, three dosage groups): far better treatment effects; ED50 [3]: 18.2 mg/kg; ED50 [4]: 3.78 mg/kg; ED50 [5]: 10.35 mg/kg; MIC [6]: 16 µg/mL; growth of penicillin-sensitive Staphylococcus aureus (bacteria-growth curve) [7]: restrained; MIC [8]: 0.5 µg/mL; MIC [9]: 1 µg/mL; MIC [10]: 0.5 µg/mL; MIC50 [11]: >64 µg/mL; MIC90 [11]: >64 µg/mL; possibility of causing host allergic reaction relative to anti-Staphylococcus aureus polypeptide [12]: lower one to two order of magnitude
